Experimental data from patent US20120064090A1, “THERAPEUTIC AGENT FOR CANCER HAVING REDUCED SENSITIVITY TO MOLECULAR TARGET DRUG AND PHARMACEUTICAL COMPOSITION FOR ENHANCING SENSITIVITY TO MOLECULAR TARGET DRUG” (KRINGLE PHARMA INC., priority 2009, published 2012).

How the values were obtained:
PC-9 = test: Effects of SU11274 on PC-9 with HGF-induced gefitinib-resistance; format: cell-based, human; settings: HGF 20 ng/mL, gefitinib 0.3 μM, antibody 1 μg/mL, NK4 0.3 μM, SU11274 0.3 μM, 72 hours, FIG. 11
Experimental: PC-9 was seeded at 2×10^3 cells/well on 96-well plates and cultured for 24 hours. […] After that, 50 μL of an MTT solution (2 mg/mL, manufactured by Sigma) was added and incubation was performed at 37° C. for 2 hours. The culture media were removed, and dark blue crystals were dissolved by adding 100 μL of DMSO. The absorbance was measured with a microplate reader MTP-120 (Corona Electric Co., Ltd.) at the detection and reference wavelengths of 550 nm and 630 nm, respectively. The growth rate was shown as a relative value based on an untreated control. Each experiment was performed in triplicate and repeated thrice independently.

H1975 [1] = test: Effects of SU11274 on H1975 with HGF-induced CL-387,785-resistance; format: cell-based, human; settings: CL-387,785 0.3 μM, HGF 50 ng/mL, antibody 2 μg/mL, NK4 0.3 μM, 72 hours, FIG. 12
Experimental: H1975 was seeded at 2×10^3 cells/well on 96-well plates and cultured for 24 hours. […] The degree of cell growth was measured by the MTT method and the growth rate was calculated in the same manner as in the above (a).

[2] = test system: tumor formed of PC-9 and MRC-5 cells; test: Xenograft tumor (PC-9 + MRC-5) transplanted into SCID mice; format: in vivo; settings: PC-9 + MRC-5 s.c., days 4 to 16, gefitinib 25 mg/kg/day oral, antibody 5 mg/kg/day i.p., NK4 9 mg/kg/day i.p., FIG. 6
Experimental: SCID mice (female, 5 weeks old) were purchased from CLEA Japan.
100 μL of a cell suspension containing PC-9 (5×10^6 cells) and MRC-5 (5×10^6 cells) was subcutaneously inoculated from the back skin of each SCID mouse. Four days later, mice bearing a tumor exceeding 4 mm in diameter were randomly divided into 6 groups (5 mice per group) as shown in Table 1.
In gefitinib-treated groups (groups 4, 5 and 6 in Table 1), gefitinib (25 mg/kg/day) was orally administered once daily in the morning for 13 days from 4 days to 16 days after cell inoculation. In gefitinib-non-treated groups (groups 1, 2 and 3 in Table 1), a water containing 1% Tween80 was orally administered once daily in a similar manner to the above. In anti-HGF neutralizing antibody-treated groups (groups 2 and 5 in Table 1), the anti-HGF neutralizing antibody (5 mg/kg/day) was intraperitoneally administered once daily immediately after gefitinib administration for 13 days from 4 days to 16 days after cell inoculation. In NK4-treated groups (groups 3 and 6 in Table 1), NK4 (9 mg/kg/day) was intraperitoneally administered in divided portions twice a day in the morning immediately after gefitinib administration and in the evening for 13 days from 4 days to 16 days after cell inoculation.
The width and length of tumor were measured every other day, and the tumor area (width×length) was calculated. […]

H1975 [3] = test: Effects of anti-human HGF neutralizing antibody or NK4 on H1975 with HGF-induced CL-387,785-resistance; format: cell-based; settings: CL-387,785 0.3 μM, HGF 50 ng/mL, antibody 2 μg/mL, NK4 0.3 μM, 72 hours, FIG. 10
Experimental: In the same manner as in the above (a), H1975 was seeded at 2×10^3 cells/well on 96-well plates. […] The degree of cell growth was measured by the MTT method and the growth rate was calculated in the same manner as in the above (a).

B1: NK4 (protein, listed as Homo sapiens)
chain 1: MWVTKLLPALLLQHVLLHLLLLPIAIPYAEGQRKRRNTIHEFKKSAKTTLIKIDPALKIKTKKVNTADQCANRCTRNKGLPFTCKAFVFDKARKQCLWFPFNSMSSGVKKEFGHEFDLYENKDYIRNCIIGKGRSYKGTVSITKSGIKCQPWSSMIPHEHSFLPSSYRGKDLQENYCRNPRGEEGGPWCFTSNPEVRYEVCDIPQCSEVECMTCNGESYRGLMDHTESGKICQRWDHQTPHRHKFLPERYPDKGFDDNYCRNPDGQPRPWCYTLDPHTRWEYCAIKTCADNTMNDTDVPLETTECIQGQGEGYRGTVNTIWNGIPCQRWDSQYPHEHDMTPENFKCKDLRENYCRNPDGSESPWCFTTDPNIRVGYCSQIPNCDMSHGQDCYRGNGKNYMGNLSQTRSGLTCSMWDKNMEDLHRHIFWEPDASKLNENYCRNPDDDAHGPWCYTGNPLIPWDYCPISRCEGDTTPTIV
chain 2: MWVTKLLPALLLQHVLLHLLLLPIAIPYAEGQRKRRNTIHEFKKSAKTTLIKIDPALKIKTKKVNTADQCANRCTRNKGLPFTCKAFVFDKARKQCLWFPFNSMSSGVKKEFGHEFDLYENKDYIRNCIIGKGRSYKGTVSITKSGIKCQPWSSMIPHEHSYRGKDLQENYCRNPRGEEGGPWCFTSNPEVRYEVCDIPQCSEVECMTCNGESYRGLMDHTESGKICQRWDHQTPHRHKFLPERYPDKGFDDNYCRNPDGQPRPWCYTLDPHTRWEYCAIKTCADNTMNDTDVPLETTECIQGQGEGYRGTVNTIWNGIPCQRWDSQYPHEHDMTPENFKCKDLRENYCRNPDGSESPWCFTTDPNIRVGYCSQIPNCDMSHGQDCYRGNGKNYMGNLSQTRSGLTCSMWDKNMEDLHRHIFWEPDASKLNENYCRNPDDDAHGPWCYTGNPLIPWDYCPISRCEGDTTPTIV
notes: recombinant human NK4 protein; N-terminal hairpin domain and four kringle domains of HGF α chain, antagonist of HGF
- inhibition of HGF-induced hyposensitivity of PC-9 to gefitinib (PC-9): significantly inhibited
- inhibition of HGF-induced hyposensitivity of H1975 to CL-387,785 (H1975 [1]): significantly inhibited
- tumor volume / tumor growth over time [2]: tumor growth rate was slightly reduced
- inhibition of HGF-induced hyposensitivity of H1975 to CL-387,785 (H1975 [3]): inhibited the HGF-induced hyposensitivity
